Measurements from patent publication US6280955.

Target: IL-1RI (cell surface IL-1 receptor) (Homo sapiens (Human)) (UniProt P14778)

**Q.** For “epitope-tagged IL-1RAcP (amino-terminal FLAG fusion, full length, transiently expressed from pFlag-CMV-1) (receptor)”, which NF-κB-dependent luciferase reporter gene in 293 cells, ligand-independent is on record?
**A.** Its NF-κB-dependent luciferase reporter gene in 293 cells, ligand-independent is 20 fold.
